Reference: the Human Domainome abundance scans (Beltran et al. 2025)

B1: V(D)J recombination-activating protein 2, residues 415 to 491; numbered along this chain, P55895 (parent)
chain: YWITCCPTCDVDINTWVPFYSTELNKPAMIYCSHGDGHWVHAQCMDLAERTLIHLSAGSNKYYCNEHVEIARALHTP

Variants of: B1
Experiment: abundance fitness (aPCA) (normalised: wild type 0, dead -1); higher = more abundant; growth selection in yeast, the domain comes from the species named
Conditions: Homo sapiens

Abundance fitness, by site and new letter:
Y31: D -0.28, H -0.061, L 0.005, C -0.039
G35: S -0.136, R -0.374, N 0.137, V -0.175, E 0.068, Q -0.17, A -0.164, L -0.042, K 0.042, I -0.07, W -0.291
A42: Y -0.626, E -0.883, W -0.643, K -0.411, D -0.762, S -0.177, Q -0.605, C -0.118, T -0.744, I -0.563, G -0.115, P -0.717, L -0.684, M -0.313
H34: A -0.035, N -0.089, S -0.032, K -0.211, R -0.119, D -0.095, L -0.073, V -0.132, F -0.301, C -0.309, E -0.085, T -0.234, P -0.808, M -0.046, Y -0.101, Q 0.051, G -0.007
C44: N -0.732, Q -0.969, F -0.952, T -0.556, Y -0.961, A -1.02, P -0.943, R -1.02, K -1.23, L -0.806, W -0.98, M -1.15, V -1.11, D -0.765, I -0.972, S -0.998, H -1.09, E -1.08, G -1.01
L47: T -0.101, N -0.364, V 0.034, H -0.243, D -0.571, F -0.133, R -0.419, M 0.05, S -0.277, Y -0.508, P -0.684, C -0.081, G -0.458, E -0.307, W -0.611, K -0.515
K26: A -0.275, R -0.006, L -0.063, V -0.084, S -0.174, Q -0.179, M -0.597, F -0.116, G -0.17, Y -0.421, E -0.129, N -0.03, P -0.786, T -0.074, W 0.023
V40: C -0.206, S -0.456, Y -0.85, M -0.092, W -1.16, A -0.288, L -0.043, I -0.081, R -0.65, D -0.555, G -0.744, F -0.852, T -0.427, Q -0.626, K -0.316, N -0.633
S33: R -0.147, K -0.132, N -0.06, G -0.065, W -0.072, D 0.035, Q -0.091, V -0.157, I -0.031, F -0.017, A 0.069, P -0.126, H -0.116, M -0.106, L -0.095, E 0.036, C -0.057
I30: R -0.322, G -0.644, L 0.122, M -0.219, K 0.147
D36: S -0.149, M -0.107, F -0.217, Y -0.32, P -0.011, K -0.441, T -0.62, R -0.246, Q 0.055, H -0.214, N -0.211, A -0.177, G -0.04, C -0.092
G37: E -0.778, K -0.785, P 0.076, S -0.839
C32: K -1.09, Y -0.888, L -0.999, T -0.99, N -0.85, R -0.967, H -0.804, P -0.887, G -1.17, F -0.946, S -0.683, W -0.861, A -1.15, D -1.14, V -0.746
